Source: patent CN115536746A (NANJING SANHOME PHARMACEUTICAL CO LTD, dated 2022)

B1: HuC94-31 (antibody, V domains shown)
VH: EVQLLESGGGLVQPGGSLRLSCAASGFTFSTSAMSWVRQAPGKGLEWVATISSGGDYTYYSDNVKGRFTISRDNSKSTLYLQMNSLRAEDTAVYYCTLGYDEADYWGQGSLLTVSS
VL: DIQMTQSPSSLSASVGDRVTITCRASQDISNYLNWYQQKPGKAPKLLIYYTSRLHSGVPSRFSGSGSGTDYTFTISSLQPEDIATYYCQQGDTFPWTFGGGTKLEIK
notes: also called HuC94-31-biotin; 抗CRTAM人源化抗体HuC94-31
B2: HuC110-34 (antibody, V domains shown)
VH: QVQLVQSGAEVKKPGASVKVSCKASGYTFTNNDINWVKQAPGQRLEWIGWIYPRDGSTQYNEKFRGRATITVDTSASTAYMELSSLRSEDTAVYFCARGLVDYWGQGTLVTVSS
VL: DVVMTQSPDSLAVSLGERATINCRSSQSLVHSNKNTYLHWYLQKPGQPPKLLIYKVSNRFSGVPDRFSGSGSGTDFTLTISSLQAEDVAVYYCSQSTRVPWTFGGGTKLEIK
notes: also called HuC110-34-biotin; 抗CRTAM人源化抗体HuC110-34
B3: HuC124-42 (antibody, V domains shown)
VH: QVQLVQSGAEVKKPGSSVKVSCKASGYSFSNYWIEWVRQAPGQGLEWIGEILPGVPTIYYNAKFKDRVTFTADKSTSTAYMELSSLRSEDTAVYYCSRDPWFAYWGQGTLVTVSA
VL: EIVLTQSPATLSVSPGERATFSCRASQSIGTSLHWFQQKPGQAPRLLIKYASQSISGIPARFSGSGSGTEFTLTISSVQSEDFAVYYCQQSNNWPFTFGGGTKLEIK
notes: also called HuC124-42-biotin; 抗CRTAM人源化抗体HuC124-42

Target: T1, cCRTAM-His (猴源CRTAM蛋白胞外区 + His标签) (猴源 (食蟹猴, cynomolgus monkey))
T1 construct: also called cCRTAM-His蛋白; 食蟹猴CRTAM
T1 chain: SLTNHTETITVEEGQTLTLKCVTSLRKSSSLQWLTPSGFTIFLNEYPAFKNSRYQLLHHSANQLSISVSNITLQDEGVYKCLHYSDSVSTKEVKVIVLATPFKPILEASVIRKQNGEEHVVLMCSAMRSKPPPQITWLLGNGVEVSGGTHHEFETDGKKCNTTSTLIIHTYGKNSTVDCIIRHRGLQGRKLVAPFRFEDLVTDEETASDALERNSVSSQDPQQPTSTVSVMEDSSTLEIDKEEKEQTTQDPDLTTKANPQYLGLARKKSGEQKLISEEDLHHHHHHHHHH
Assay: ELISA, cCRTAM-His coated at 2 μg/mL

Binder | EC50 [ng/mL]
B1 | 4.68
B2 | 8.17
B3 | 4.78
